Test results published in patent US20110065645A1, “Compositions and Methods for Modulating Neuron Degeneration and Neuron Guidance” (The Regents of the University of California, priority 2009, published 2011).

Legend:
JNK = experiment: Phospho-Jun immunoblot in HEK293T cells expressing Fzd3-mCherry; format: cell-based; conditions: Wnt5a added
Excerpt: Vgl2 antagonizes Dvl1's feedback inhibition of Fzd3 mediated Wnt/PCP Signaling. To elucidate how core PCP components function cell autonomously, we first explored how Dvl1, Vgl2 and Fzd3 interact with each other. It is known that Dvl is a central cytoplamsic molecule in the activation of Wnt-PCP signaling. In non-canonical signaling, Fzd is thought recruit Dvl to the plasma membrane and Dvl then subsequently activates the downstream signaling, such as Jun N terminal kinases (JNK), Rac1 and RhoA. […] However, upon co-expression of Fzd3 and Dvl1, we found a surprising Wnt5a-dependent down regulation of p-Jun level (FIG. 17A, lanes 5-7, quantified in FIG. 17B), uncovering a novel feedback inhibition mechanism in PCP signaling. With 30 minutes of Wnt5a addition p-Jun signal is essentially gone in Fzd3 and Dvl1 co expressing cells, (FIG. 17A lane 7).
Surface biotinylation and immunopreciptiation. […] For the membrane immunoprecipitation, 600 ug of protein extracts were incubated overnight and retrieved by NeutrAvidin-coated Agarose beads (Pierce), the bound fraction was boiled and loaded on SDS-PAGE gel and analyzed by western blot analysis. […]

Fzd3 = biological target: T1, Fzd3 (Mus musculus, UniProt Q61086); experiment: Surface biotinylation and avidin immunoprecipitation of Fzd3 in HEK293T cells; format: cell-based
T1 construct: expressed in transfected cells; host or cells: HEK293T
T1 sequence (Q61086 23-666): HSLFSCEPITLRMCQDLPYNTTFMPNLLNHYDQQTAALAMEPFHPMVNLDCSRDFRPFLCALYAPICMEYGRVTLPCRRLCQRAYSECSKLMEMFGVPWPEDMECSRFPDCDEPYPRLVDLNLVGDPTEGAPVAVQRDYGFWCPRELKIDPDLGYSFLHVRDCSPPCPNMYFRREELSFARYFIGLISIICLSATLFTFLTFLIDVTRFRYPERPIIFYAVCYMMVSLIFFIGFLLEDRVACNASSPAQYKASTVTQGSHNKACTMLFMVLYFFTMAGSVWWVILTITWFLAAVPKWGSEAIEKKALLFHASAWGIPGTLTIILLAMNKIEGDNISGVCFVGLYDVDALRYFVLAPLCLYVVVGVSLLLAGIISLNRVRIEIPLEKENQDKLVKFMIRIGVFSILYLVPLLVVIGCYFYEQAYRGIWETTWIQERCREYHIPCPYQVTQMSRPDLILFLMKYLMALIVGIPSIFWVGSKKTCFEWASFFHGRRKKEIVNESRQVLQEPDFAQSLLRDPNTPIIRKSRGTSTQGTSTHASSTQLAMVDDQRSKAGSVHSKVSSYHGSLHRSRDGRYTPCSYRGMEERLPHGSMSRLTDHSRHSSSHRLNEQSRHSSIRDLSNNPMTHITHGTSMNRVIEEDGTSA
Excerpt: Dvl and Vgl have antagonistic functions on Fzd3 phosphorylation. […] We transfected Fzd3-mCherry in HEK293T cells then surface biotinylated and immunoprecipitated (IP) the surface molecules with strepavidin-conjugated beads to obtain membrane-localized proteins. […] We tested whether these two Fzd3 bands represent phosphorylation states of the Frizzled3 protein, one being phosphorylated/hyperphosphorylated Fzd3 (p-Fzd3) and the other non-phosphorylated Fzd3. […] Phosphorylation of Fzds has been shown previously in Xenopus oocytes
It has been proposed that Frizzled internalization is necessary for PCP signaling and phenotypes (Gagliardi et al., 2008; Yu et al., 2007). However, it has never been directly tested whether the cell surface level of Fzd, the Wnt-PCP receptor, changes upon Wnt addition. By using our surface biotinylation and immunoprecipitation with avidin, we show here, 15 minutes after Wnt addition, cell surface level of Fzd3-EGFP is diminished (FIG. 18C, Avidin IP, lane 3 anti-EGFP IB). […] This Fzd3 receptor oscillation from and to the membrane appeared to be a Wnt-Fzd specific effect because a non-Wnt binding receptor, such as the Insulin receptor stayed the same throughout the Wnt stimulation (FIG. 18C, Avidin IP, anti-Insulin Rβ IB). The Wnt-dependent Fzd3 oscillation is quantified in FIG. 18D (cross symboled line). […] In addition, PCP components appeared to effect this Wnt dependent oscillation of Fzd3 to and from the membrane. When Dvl1 is over expressed with Fzd3, we found within 30 minutes Fzd3 is unable to be internalized (FIG. 25B, lanes 5-7 and line). However, upon the introduction of Vangl2 into the transfection mix, Fzd3 oscillation is resumed (FIG. 25B, lanes 8-10 and circle symboled line).
Surface biotinylation and immunopreciptiation. 30 hours after transfection with the indicated constructs into HEK293T cells (FuGene, Roche), followed by 8-hour incubation in Optimem and subsequent bath application of recombinant Wnt5a (R&D Systems), surface proteins were subsequently labeled on ice with 1 mg/ml of Sulfo-NHS-LC-Biotin reagent (Pierce). The cell lysates were collect over a period of 30 minutes on ice in the following lysis buffer: 20 mM Tris pH7.6, 150 mM NaCl, 1% Triton, 0.1% SDS, 2.5 mM EDTA, 2.5 mM EGTA, protease Inhibitors (Roche). For the membrane immunoprecipitation, 600 ug of protein extracts were incubated overnight and retrieved by NeutrAvidin-coated Agarose beads (Pierce), the bound fraction was boiled and loaded on SDS-PAGE gel and analyzed by western blot analysis. To visualize the input amount 20 ug of total lysate was loaded, and for the Avidin IPs the total amount was loaded for western blot analysis. The following primary antibodies were used for the immunoblots: α-Frizzled3 (Wang et al., 2006), α-Vangl2 (Santa Cruz), α-mCherry/DsRed (Clontech), α-Jun (Cell Signaling), α-phospho-Jun (Cell Signaling), α-JNK (Cell Signaling), α-phospho-JNK (Cell Signaling), α-Flag (Sigma), α-GAPDH (Chemicon), α-Insulin Rβ (Santa Cruz).

B1: Wnt5a: recombinant Wnt5a protein (R&D Systems) (protein, UniProt P41221 62-380, looked up)
Protein Wnt-5a: IIGAQPLCSQLAGLSQGQKKLCHLYQDHMQYIGEGAKTGIKECQYQFRHRRWNCSTVDNTSVFGRVMQIGSRETAFTYAVSAAGVVNAMSRACREGELSTCGCSRAARPKDLPRDWLWGGCGDNIDYGYRFAKEFVDARERERIHAKGSYESARILMNLHNNEAGRRTVYNLADVACKCHGVSGSCSLKTCWLQLADFRKVGDALKEKYDSAAAMRLNSRGKLVQVNSRFNSPTTQDLVYIDPSPDYCVRNESTGSLGTQGRLCNKTSEGMDGCELMCCGRGYDQFKTVQTERCHCKFHWCCYVKCKKCTEIVDQFVCK
For B1, the p-Jun level (JNK) was “increased”, the “time of Fzd3-EGFP internalization” value (Fzd3; high concentration (200 ng/ml), batch #1) was 15 minute and two hour and the “time of Fzd3-EGFP internalization” value (Fzd3; high concentration, batch #2) was 15 min and 60 min. For the same molecule, the “time of Fzd3-EGFP internalization” value (Fzd3; low concentration (100 ng/ml), batch #1) was 30 min and the “cell surface levels of Fzd3” value (Fzd3; upon the addition of Wnt5a) was “reduction of cell surface levels of Fzd3”.
